Experimental data reported in patent US10611814 (GEMOAB MONOCLONALS, dated 2020).

What was measured:
Experiment in all cases: cell-based or functional assay
CD123 antigen = CD123 antigen (UniProt P26951 19-378, limits assumed)
[1] = target: prostate membrane antigen (UniProt Q04609 1-750, limits assumed)
[2] = target: T1, prostate stem cell antigen (UniProt O43653 12-83, limits assumed)
T1 sequence (looked up): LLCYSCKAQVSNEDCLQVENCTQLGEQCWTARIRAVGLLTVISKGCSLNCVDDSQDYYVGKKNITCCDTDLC

CD33 antigen = CD33 antigen (UniProt P20138 18-364, limits assumed)
CD33 antigen, sequence (P20138 18-364 limits assumed): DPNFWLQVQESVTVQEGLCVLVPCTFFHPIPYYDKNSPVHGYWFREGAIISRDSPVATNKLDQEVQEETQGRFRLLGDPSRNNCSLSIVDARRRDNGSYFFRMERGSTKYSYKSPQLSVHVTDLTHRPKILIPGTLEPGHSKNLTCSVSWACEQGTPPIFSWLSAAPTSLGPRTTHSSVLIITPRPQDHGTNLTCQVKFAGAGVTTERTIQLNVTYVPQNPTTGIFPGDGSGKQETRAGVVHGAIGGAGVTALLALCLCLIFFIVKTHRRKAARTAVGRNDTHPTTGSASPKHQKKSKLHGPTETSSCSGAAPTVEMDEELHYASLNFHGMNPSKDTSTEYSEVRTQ

CD123 antigen, sequence (P26951 19-378 limits assumed): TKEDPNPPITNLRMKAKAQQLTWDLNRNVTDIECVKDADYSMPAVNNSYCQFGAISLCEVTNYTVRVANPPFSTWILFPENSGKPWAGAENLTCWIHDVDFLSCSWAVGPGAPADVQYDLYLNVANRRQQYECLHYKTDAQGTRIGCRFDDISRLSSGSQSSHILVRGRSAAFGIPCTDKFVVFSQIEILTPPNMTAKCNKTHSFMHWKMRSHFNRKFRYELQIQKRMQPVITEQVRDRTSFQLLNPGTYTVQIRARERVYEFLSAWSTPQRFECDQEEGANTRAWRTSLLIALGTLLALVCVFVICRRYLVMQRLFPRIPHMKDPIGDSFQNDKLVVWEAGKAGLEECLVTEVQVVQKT
prostate membrane antigen, sequence (Q04609 whole entry): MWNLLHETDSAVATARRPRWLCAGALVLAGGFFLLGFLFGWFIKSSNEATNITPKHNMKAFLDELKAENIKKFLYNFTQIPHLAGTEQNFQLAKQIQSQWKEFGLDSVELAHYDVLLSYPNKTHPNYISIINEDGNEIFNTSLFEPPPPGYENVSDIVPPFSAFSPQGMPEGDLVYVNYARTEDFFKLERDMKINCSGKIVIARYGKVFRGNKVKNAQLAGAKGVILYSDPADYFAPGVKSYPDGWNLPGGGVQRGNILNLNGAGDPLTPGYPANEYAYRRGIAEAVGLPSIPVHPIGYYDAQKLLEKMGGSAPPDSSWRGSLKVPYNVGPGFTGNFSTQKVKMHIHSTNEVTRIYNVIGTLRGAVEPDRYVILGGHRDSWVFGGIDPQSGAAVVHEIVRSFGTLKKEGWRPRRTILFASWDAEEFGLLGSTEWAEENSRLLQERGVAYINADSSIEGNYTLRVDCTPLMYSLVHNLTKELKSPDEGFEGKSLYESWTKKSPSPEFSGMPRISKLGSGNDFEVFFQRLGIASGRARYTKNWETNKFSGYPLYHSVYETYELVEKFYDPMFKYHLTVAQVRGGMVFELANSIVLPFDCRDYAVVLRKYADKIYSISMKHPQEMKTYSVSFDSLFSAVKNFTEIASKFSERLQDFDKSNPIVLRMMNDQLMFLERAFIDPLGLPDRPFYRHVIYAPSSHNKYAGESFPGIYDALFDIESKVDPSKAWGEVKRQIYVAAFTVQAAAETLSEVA

B1: target module specific for CD123 (scFv)
scFv: DAAQPAEVQLQQSGPELVKPGASVKMSCKASGYTFTDYYMKWVKQSHGKSLEWIGDIIPSNGATFYNQKFKGKATLTVDRSSSTAYMHLNSLTSEDSAVYYCTRSHLLRASWFAYWGQGTLVTVSAASGGGGSGGGGSGGGGSDFVMTQSPSSLTVTAGEKVTMSCKSSQSLLNSGNQKNYLTWYLQKPGQPPKLLIYWASTRESGVPDRFTGSGSGTDFTLTISSVQAEDLAVYYCQNDYSYPYTFGGGTKLEIKGGGGSAAAKPLPEVTDEYARGGPEQKLISEEDLNSAVDHHHHHH
- EC50, 51Cr-release lysis of MOLM-13 by UniCAR T cells, e:t 1:1, 24 h; combination of αCD33 TM + αCD123 TM (CD123 antigen): 70.2 pmol
- EC50, 51Cr-release lysis of OCI-AML3 by UniCAR T cells, e:t 1:1, 24 h; combination of αCD33 TM + αCD123 TM (CD123 antigen): 80.2 pmol
- EC50, lysis of MOLM-13 by UniCAR T cells, e:t 1:1 (CD123 antigen): 45 pmol

B2: target module specific for PSMA (scFv)
scFv: DAAQPAEVQLQQSGPELVKPGTSVRISCKTSGYTFTEYTIHWVKQSHGKSLEWIGNINPNNGGTTYNQKFEDKATLTVDKSSSTAYMELRSLTSEDSAVYYCAAGWNFDYWGQGTTVTVSSGGGGSGGGGSGGGGSDIVMTQSHKFMSTSVGDRVSIICKASQDVGTAVDWYQQKPGQSPKLLIYWASTRHTGVPDRFTGSGSGTDFTLTITNVQSEDLADYFCQQYNSYPLTFGAGTMLDLKAAAKPLPEVTDEYARGGPEQKLISEEDLNSAVDHHHHHH
- Half maximal effective dosis (EC50), 51Cr-release lysis of PC3 cells expressing PSMA by UniCAR T cells, e:t 5:1 [1]: ~12 pmol

B3: target module specific for PSCA (scFv)
scFv: DAAQPAGSDIQMTQSPSSLSASVGDRVTITCGTSQDINNYLNWYQQKPGKVPKLLIYYTSRLHSGVPSRFSGSGSGTDFTLTISSLQPEDVATYYCQQSKTLPWTFGGGTQLTVLGGGGSGGGGSGASAAGGGGSGGGGSQVQLVESGGGLVKPGGSLRLSCAASGFTFSSYSMSWIRQAPGKGLEWVSYINDSGGSTFYPDTVKGRFTISRDNAKNSLYLQMNSLRAEDTAVYYCARRMYYGNSHWHFDVWGQGTTVTVSSGGGGSAAAKPLPEVTDEYARGGPEQKLISEEDLNSAVDHHHHHH
- Half maximal effective dosis (EC50), 51Cr-release lysis of PC3 cells expressing PSCA by UniCAR T cells, e:t 5:1 [2]: ~12 pmol

B4: target module specific for CD33 (scFv)
scFv: DAAQPAGSDIVLTQSPASLAVSPGQRATITCTASSSVNYIHWYQQKPGQPPKLLIYDTSKVASGVPARFSGSGSGTDFTLTINPVEANDTANYYCQQWRSYPLTFGQGTKLEIKGGGGSGGGGSGASGAGGGGSGGGGSQVQLVQSGAEVKKPGASVKVSCKASGYTFTDYVVHWVRQAPGQGLEWMGYINPYNDGTKYNEKFKGRVTMTRDTSISTAYMELSRLRSDDTAVYYCARDYRYEVYGMDYWGQGTLVTVSSGGGGSAAAKPLPEVTDEYARGGPEQKLISEEDLNSAVDHHHHHH
- EC50, 51Cr-release lysis of MOLM-13 by UniCAR T cells, e:t 1:1, 24 h; combination of αCD33 TM + αCD123 TM (CD33 antigen): 70.2 pmol
- EC50, 51Cr-release lysis of OCI-AML3 by UniCAR T cells, e:t 1:1, 24 h; combination of αCD33 TM + αCD123 TM (CD33 antigen): 80.2 pmol
- EC50, lysis of MOLM-13 by UniCAR T cells, e:t 1:1 (CD33 antigen): 137 pmol

B5: bi-specific CD33-CD123 target module (bispecific antibody)
chain: DAAQPAEVQLQQSGPELVKPGASVKMSCKASGYTFTDYYMKWVKQSHGKSLEWIGDIIPSNGATFYNQKFKGKATLTVDRSSSTAYMHLNSLTSEDSAVYYCTRSHLLRASWFAYWGQGTLVTVSAASGGGGSGGGGSGGGGSDFVMTQSPSSLTVTAGEKVTMSCKSSQSLLNSGNQKNYLTWYLQKPGQPPKLLIYWASTRESGVPDRFTGSGSGTDFTLTISSVQAEDLAVYYCQNDYSYPYTFGGGTKLEIKAAAKPLPEVTDEYARGQVQLVQSGAEVKKPGASVKVSCKASGYTFTDYVVHWVRQAPGQGLEWMGYINPYNDGTKYNEKFKGRVTMTRDTSISTAYMELSRLRSDDTAVYYCARDYRYEVYGMDYWGQGTLVTVSSGGGGSGGGGSGGGGSDIVLTQSPASLAVSPGQRATITCTASSSVNYIHWYQQKPGQPPKLLIYDTSKVASGVPARFSGSGSGTDFTLTINPVEANDTANYYCQQWRSYPLTFGQGTKLEIKGPEQKLISEEDLNSAVDHHHHHH
- EC50, 51Cr-release lysis of MOLM-13 by UniCAR T cells, e:t 1:1, 24 h; bispecific TM (CD33 antigen): 2.9 pmol
- EC50, 51Cr-release lysis of OCI-AML3 by UniCAR T cells, e:t 1:1, 24 h; bispecific TM (CD33 antigen): 11.7 pmol
- EC50, 51Cr-release lysis of MOLM-13 by UniCAR T cells, e:t 1:1, 24 h; bispecific TM (CD123 antigen): 2.9 pmol
- EC50, 51Cr-release lysis of OCI-AML3 by UniCAR T cells, e:t 1:1, 24 h; bispecific TM (CD123 antigen): 11.7 pmol
